Data set [1] has as its system fibronectin matrix assembly. Conditions: cited from earlier work.
In data set [2] the test system is human umbilical vein endothelial cells (HUVECs). Kind of data set: Endothelial cell proliferation assay. Type of data set: cell-based. To be noted: 72 hours; for effect on proliferation of endothelial cells (in words): cell counts. As to the method: Cells were seeded onto tissue culture plates in full media and allowed to adhere for two hours. […] Cells were then incubated for 72 hours at 37° C., 5% CO2. After 72 hours, wells were washed, trypsinized, and counted (three counts/well, three wells/dose) using a hemacytometer.
1×10^4 human umbilical vein endothelial cells (HUVECs) (Cambrex) were seeded into Costar 24 well tissue culture plates in endothelial growth media-2 (EGM-2) (Cambrex) and allowed to adhere for two hours. After two hours, BBK32, Anastellin, and FnbpA peptide D3 were added in a dose dependent manner (triplicate) to the wells suspended in EGM-2. Cells were allowed to incubate for 72 hours at 37° C., 5% CO2. After 72 hours, wells were washed with PBS and cells were trypsinized with 0.5% trypsin/EDTA (Cambrex). Trypsinized cells were collected in microcentrifuge tubes and trypsin/EDTA was neutralized with EGM-2. Cells were counted from each well (three counts/well, three wells/dose) using a hemacytometer.

Data set [3] deals with purified plasma fibronectin. Description: Fibronectin aggregation assay (O.D.600). To be noted: for induction of plasma fibronectin aggregation (in words): 1 μM purified plasma fibronectin, absorbance at 600 nm. Format: biochemical, human. As to the method:
BBK32, FnbpA peptide D3, Anastellin, and purified plasma fibronectin were centrifuged at 14,000 rpm for 15 minutes and then filtered through 0.22 μm PES syringe filters (Nalgene, Rochester, N.Y.). Following filtration, BBK32, FnbpA peptide D3, and Anastellin were titrated into 1 μM purified plasma fibronectin in TBS. After the addition of each aliquot, the fibronectin/protein mixture was carefully mixed five times with a 200 μl pipette and optical density at 600 nm was measured using a BioPhotometer (Eppendorf, New York, N.Y.) after 10 seconds.

The test system of the next data set is plasma fibronectin. Description: Proteolytic (thermolysin) digestion of fibronectin aggregates. Conditions: 20 μM inducer, 1 μM plasma fibronectin, 5 μg/ml thermolysin 2 hours, SDS-PAGE. Format: biochemical, human. As to the method:
The sequences obtained, SSPVVID (SEQ ID No. 12), AVEENQE (SEQ ID No. 13), and ITETIP (SEQ ID No. 14), were located to the end of ^13F3, middle of ^3F3, and the start of ^1F3, respectively for both BBK32/fibronectin and Anastellin/fibronectin. Pre-stained protein standard (New England Biolabs).
BBK32, Anastellin, and plasma fibronectin were dialyzed into thermolysin digestion buffer (25 mM Tris, 0.5 mM EDTA, pH 8, 50 mM NaCl, and 2.5 mM CaCl2). 20 μM BBK32 or 20 μM Anastellin was added to 1 μM plasma fibronectin. Solutions were mixed and aggregates were allowed to form for one hour at room temperature. After one hour incubation, 5 μg/ml thermolysin (Sigma) was added to the BBK32-sFn, the Anastellin-sFn, and to plasma fibronectin. The solutions were incubated at room temperature with end-over-end mixing for 2 hours. Digestion was stopped after two hours with the addition of EDTA to a final concentration of 5 mM. Samples were then run on 4-20% gradient SDS-PAGE gels under non-reducing conditions. […] Excess stain was removed with 40% methanol and bands that were present in BBK32-sFn and Anastellin-sFn, but not in plasma fibronectin lanes, were excised and analyzed by N-terminal sequencing using Edman degradation (Protein Sequencing Division, Tufts University Core Facility, Boston, Mass.).

The test system of data set [4] is fibronectin matrix of normal human dermal fibroblasts (NHDFs). Kind of data set: Effects on fibronectin matrix assembled by normal human dermal fibroblasts (immunostaining). Type of data set: cell-based. To be noted: 5 μM, 20 hours. As to the method: Cells were treated for 20 hours and then fixed. […] Treated cells were incubated for 20 hours and probed with Alexa Fluor 488-anti-fibronectin, monoclonal antibody IST-1, and monoclonal antibody IST-9. Images were taken using LSM 510 Confocal Microscope. Bar=10 μm.
4×10^4 adult normal human dermal fibroblasts (NHDFs) (Cambrex, East Rutherford, N.J.) were seeded onto glass coverslips in 24 well Costar tissue culture plates in Fibroblast growth media-2 (FGM-2) (Cambrex). Cells were allowed to grow for 48 hours and then BBK32, Anastellin, or FnbpA peptide D3 was added to a final concentration of 5 μM in FGM-2. Treated cells were incubated for 20 hours at 37° C., 5% CO2. After incubation, cells were washed with Dulbecco's PBS (DPBS) (Gibco, Invitrogen, Carlsbad, Calif.) and fixed with 2% paraformaldehyde for 30 minutes at room temperature. Following washing with DPBS, cells were blocked with 1% BSA for one hour at room temperature. Cells were then probed with Alexa Fluor 488-anti-fibronectin, Texas Red anti-His, monoclonal antibodies IST-1 (plasma and cellular fibronectin) and IST-9 (cellular fibronectin) (abcam, Cambridge, UK) or combinations of antibodies at a dilution of 1:3000 for one hour at room temperature. Following extensive washing with DPBS, appropriate fluorescently labeled secondary antibodies (Alexa Fluor 594-goat anti-mouse) (Invitrogen, Carlsbad, Calif.) were added at a dilution of 1:3000 and incubated for one hour at room temperature. After incubation, cells were washed extensively with DPBS and coverslips were mounted using Gel/Mount (biømeda, Foster City, Calif.) onto glass slides and images were taken using a LSM 510 Confocal Microscope (Zeiss).

The target in another data set is T1, ^1F3 fibronectin module (Homo sapiens, UniProt P02751).
T1 construct: His-tag (N); made in house
T1 sequence (P02751 608-700): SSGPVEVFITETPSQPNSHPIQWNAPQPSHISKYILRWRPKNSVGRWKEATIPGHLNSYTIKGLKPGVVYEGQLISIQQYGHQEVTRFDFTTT
Description: ELISA-type binding assay, immobilized 1F3 module. As to the method: Binding to ^1F3 (FIG. 1A), ^1-2F3 (FIG. 1B), and ^3F3 (FIG. 1C) was assessed using ELISA-type assays. F3 modules were immobilized in microtiter wells and blocked with Ovalbumin.
Binding of BBK32 to F3 modules was tested by coating 1 μg of recombinant ^1F3, ^1-2F3, and ^3F3 modules in 50 μl of 50 mM Tris-HCl, 150 mM NaCl, pH 7.5 (TBS) per well in Immulon 4HBX microtiter plates (Dynatech Laboratories, Chantilly, Va.) and incubating overnight at 4° C. The next day, the wells were washed with 200 μl TBS, 0.05% Tween 20, pH 7.4 (TBST) and blocked with 200 μl TBST containing 2% ovalbumin (Sigma, St. Louis, Mo.) for one hour at room temperature. […] Plates were incubated for one hour at room temperature. After washing with TBST, primary antibodies (rabbit IgG anti-BBK32 or rabbit IgG anti-FnbpA) were added to each well at a 0.48 μg/ml. Plates were incubated for one hour at room temperature and then were washed again with TBST.
Following washing, a 1:3000 dilution of HRP-conjugated goat-anti-rabbit antibodies (BioRad, Hercules, Calif.) was added to each well. Plates were incubated for one hour at room temperature and then washed with TBST. […] Absorbance was measured at 450 nm using a Thermo Max microplate reader (Molecular Devices, Sunnyvale, Calif.). Apparent Kds were calculated by assessing maximal half-binding (Y=Bmax·X/(Kd+X)).
For orientation: An ELISA detects its analyte on a solid surface through an enzyme-linked reagent.

In another data set the test system is endothelial cells. Kind of data set: Annexin V apoptosis assay on endothelial cells. Type of data set: cell-based. To be noted: not shown.
The subject of data set [5] is fibronectin 56 kDa and 45 kDa gelatin binding fragments. Description: Far Western blot of thermolysin digest of fibronectin. To be noted: 56 kDa fragment vs 45 kDa gelatin binding fragment. An excerpt:
BBK32 binds to the ^1F1-^5F1 N-terminal segment of fibronectin by the tandem beta-zipper mechanism (6-7).

Data set [6] is described as follows: Stability of recombinant protein. Type of data set: physicochemical.

Data on four molecules can be found in patent publication US7824868B2, “Formation of superfibronectin by BBK32 and uses therefor” (priority 2007, dated 2010).

Sequence of purified plasma fibronectin (P02751 32-1265 limits assumed): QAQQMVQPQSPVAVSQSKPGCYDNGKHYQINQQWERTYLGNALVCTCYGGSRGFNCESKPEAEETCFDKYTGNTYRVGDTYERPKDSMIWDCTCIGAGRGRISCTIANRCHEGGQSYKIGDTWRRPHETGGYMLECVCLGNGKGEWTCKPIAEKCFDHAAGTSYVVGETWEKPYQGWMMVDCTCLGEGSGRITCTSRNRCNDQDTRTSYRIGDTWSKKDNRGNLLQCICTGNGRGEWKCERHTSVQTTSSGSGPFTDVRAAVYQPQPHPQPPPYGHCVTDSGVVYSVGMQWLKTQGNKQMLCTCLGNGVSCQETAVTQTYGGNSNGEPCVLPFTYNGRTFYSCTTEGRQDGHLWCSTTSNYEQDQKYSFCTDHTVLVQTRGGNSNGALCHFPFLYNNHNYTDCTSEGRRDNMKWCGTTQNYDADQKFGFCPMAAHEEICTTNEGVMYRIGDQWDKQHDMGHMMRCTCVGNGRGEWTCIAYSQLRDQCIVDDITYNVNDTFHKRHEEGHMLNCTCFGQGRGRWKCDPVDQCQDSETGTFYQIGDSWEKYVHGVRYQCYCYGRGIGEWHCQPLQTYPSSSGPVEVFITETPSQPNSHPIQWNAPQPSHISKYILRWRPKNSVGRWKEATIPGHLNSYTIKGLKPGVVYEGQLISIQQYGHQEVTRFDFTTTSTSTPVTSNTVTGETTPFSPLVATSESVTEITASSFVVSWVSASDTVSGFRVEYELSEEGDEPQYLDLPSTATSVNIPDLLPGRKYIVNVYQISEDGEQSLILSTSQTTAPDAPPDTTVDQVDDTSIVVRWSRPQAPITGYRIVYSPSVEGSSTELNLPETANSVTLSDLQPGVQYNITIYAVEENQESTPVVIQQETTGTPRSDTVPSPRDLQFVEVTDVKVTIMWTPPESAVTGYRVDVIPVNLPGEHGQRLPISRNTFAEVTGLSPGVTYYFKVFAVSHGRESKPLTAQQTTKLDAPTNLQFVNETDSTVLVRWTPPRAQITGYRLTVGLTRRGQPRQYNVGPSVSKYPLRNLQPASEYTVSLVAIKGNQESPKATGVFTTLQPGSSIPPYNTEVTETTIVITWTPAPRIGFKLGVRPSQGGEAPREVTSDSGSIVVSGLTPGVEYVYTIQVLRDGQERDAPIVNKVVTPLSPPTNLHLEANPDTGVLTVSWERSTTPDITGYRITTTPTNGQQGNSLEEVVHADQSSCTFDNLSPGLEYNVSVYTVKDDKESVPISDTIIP
Sequence of plasma fibronectin (P02751 32-1265 limits assumed): as above

For the molecule “Anastellin: Recombinant form of the C-terminal two-thirds of fibronectin ^1F3 with C-terminal His-tag; known inducer of superfibronectin”, the “concentration at which matrix assembly is blocked” value in data set [1] (high concentrations, 16 hour incubation causes disappearance of pre-existing matrix) was “above 20 μM”. Besides, in data set [1] (low concentrations), the “concentration at which fibronectin matrix assembly is promoted” value was “less than 5 μM”. Besides, in data set [2], the “effect on proliferation of endothelial cells (in words)” value (“effect on proliferation” below) is recorded as “concentration dependent manner”. Moreover, the “induction of plasma fibronectin aggregation (in words)” value (shortened to “induction”) in [3] is on record as “induced fibronectin aggregation”. Also, the “thermolysin fragment profile of induced fibronectin aggregates” value in the data set with plasma fibronectin was “very similar fragment profiles”. In data set [4], the “co-localization with fibronectin in the extracellular matrix” value (shortened to “co-localization with fibronectin”) is reported as “co-localize with fibronectin” and the “immunostaining with monoclonal antibody IST 9 (EDA epitope of cellular fibronectin)” value (from here on “immunostaining”) is listed as “markedly reduced immunostaining with IST 9”.

On to “FnbpA peptide D3: S. aureus fibronectin-binding peptide D3 of MSCRAMM FnbpA, synthesized and purified by HPLC; used as control (GFNKHTEIIEEDTNKDKPSYQFGGHNSVDFEEDTLPK)”, for which the “effect on proliferation” value in data set [2] is recorded as “only marginally affected the proliferation of cells”. Further, in the data set with ^1F3 fibronectin module, the “binding to the ^1F3 module (in words)” value is recorded as “did not to bind the ^1F3 module”. Further, the “induction” value in data set [3] is recorded as “not the D3 protein induced fibronectin aggregation”. Moreover, in data set [4], the “co-localization with fibronectin” value was “co-localize with fibronectin” and the “immunostaining” value is listed as “no different from the staining observed for the no treatment control”.

B1: BBK32(21-205): Recombinant fibronectin-binding segment, residues 21-205, of Borrelia burgdorferi lipoprotein BBK32 (SEQ ID NO: 6) (protein)
chain: DLFIRYEMKEESPGLFDKGNSILETSEESIKKPIKKPMNKKGKGKIARKKGKSKVSRKEPYIHSLKRDSANKSNFLQKNVILEEESLKTELLKEQSETRKEKIQKQQDEYKGMTQGSLNSLSGESGELEEPIESNEIDLTIDSDLRPKSSLQGIAGSNSISYTDEIEEEDYDQYYLDEYDEEDEEEIRL
modifications: recombinant peptide from residues 21-205 of BBK32
B1: in data set [2], the “potency at inhibiting endothelial cell proliferation relative to Anastellin” value is “reproducibly more potent at inhibiting endothelial cell proliferation than Anastellin” and the “effect on proliferation” value is reported as “inhibited the proliferation of endothelial cells in a concentration dependent manner”. For the same molecule, the “Annexin V assays (apoptosis)” value with endothelial cells is “negative”. Moreover, the “induction” value in data set [3] was “induced fibronectin aggregation”. For the same molecule, the “fibronectin aggregation on addition of detergent Triton X-100” value in data set [3] (Triton X-100 added, not shown) is recorded as “inhibited fibronectin aggregation”. For the same molecule, the “relative binding to fibronectin thermolysin fragments” value in data set [5] is “binds more strongly to the 56 kDa fragment than to the 45 kDa gelatin binding fragment”. For the same molecule, the “thermolysin fragment profile of induced fibronectin aggregates” value in the data set with plasma fibronectin was “very similar fragment profiles”. In addition, in data set [4], the “co-localization with fibronectin” value is listed as “co-localize with fibronectin” and the “immunostaining” value is “reduction of immunostaining with IST 9”.

B2: BBK32(21-354): Recombinant intact BBK32 protein, residues 21-354, including the C-terminal globular domain (SEQ ID NO: 5) (protein)
chain: DLFIRYEMKEESPGLFDKGNSILETSEESIKKPIKKPMNKKGKGKIARKKGKSKVSRKEPYIHSLKRDSANKSNFLQKNVILEEESLKTELLKEQSETRKEKIQKQQDEYKGMTQGSLNSLSGESGELEEPIESNEIDLTIDSDLRPKSSLQGIAGSNSISYTDEIEEEDYDQYYLDEYDEEDEEEIRLSNRYQSYLEGVKYNVDSAIQTITKIYNTYTLFSTKLTQMYSTRLDNFAKAKAKEEAAKFTKEDLEKNFKTLLNYIQVSVKTAANFVYINDTHAKRKLENIEAEIKTLIAKKIEQSNLYEAYKAIVTSILLMRDSLKEVQGIIDKNGVWY
modifications: recombinant peptide from residues 21-354 of BBK32
Regarding B2, the “stability of the recombinant protein” value in data set [6] was “unstable and susceptible to degradation”. Besides, in data set [3], the “induction” value is listed as “induced aggregation of fibronectin at lower concentrations than BBK32(21-205)”.
